This note sets out measurements from a protein production outcome set (Wang et al. 2014).
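Further: failed if final PepcDB status was selected cloned or expressed and not failed if soluble or beyond.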

The series in a line: label from the status in PepcDB records.
For the sequence “AIAPDSLYDSLECLSEKIEAEGLYTTFSSDKLVRRIKRSSETEKIILSRFLRARRFNVDSAFDSFLACLKFREAENVNSVGLDEFKNPLATFPFTTTGFCTFDGEPLLYGRASALDRFKIDPAIFHRGFISFLEFLGDTFEPSTMFVIIFDFTDFSPIRNVHFGCARDMLKVMQDFYPERLSKIFLVNYPSTLYGVYKIVSPFIDENTRSKLEWIPKNSLEQLLRYVSMEAIPYSIGGMAVYPVPPLSSQ”, the protein production result is recorded as “failed”.

Consider “AIAREWKSQDAWKQHSLRLCFGVWPGTEFLHRPRAVHRRSGVVCSQMQTEDSHPETPQVPKESLQEEKDSSPATDASFIQSQDGKTVFLDRRTERRIQRGFVLTERGPRSIWKPAGTSSQRNERVPRRAAARGGAGPPDTTPQLATVRVLVLGANHVAQRLAELLSSHSRVCGCYFVSETTDEAAIESMKKYAYALPLRSALNDDEVVRVAEWVLADYVFLVPTGETHDDGVSLKDKERLERTLAQNRVTFMDENLTGLLLENPSLIDALFRARDSLEA”, for which the protein production result is on record as “failed”.

Regarding “AIARGHGTYMDEDRLTASVAGQVERVNKLICVKPLKTRYNGEVGDVVVGRITEVQQKRWKVETNSRLDSVLLLSAVNLPGGELRRRSTQDELAMRDYLQEGDLISAEVQSIFSDGALSLHTRSLKYGKLGQGVLVYVSPSLVKRQKTHFHNLPCGASLILGNNGYVWLSPTPALQEEQAGGFYTSMEPVSLSDREVVSRLRNCLLALANQKVLLFDTSVLYCYEASLQHQIKDILKPEIMEEIVLETRQRLMEHEG”, the protein production result is listed as “not failed”.

Turning to “AIASEVSCKKRDDYLEWPEYFMAVAFLSAQRSKDPNSQVGACIVNSENKIVGIGYNGMPNGCSDDVLPWRRTAENKLDTKYPYVCHAELNAIMNKNLTDVKGCSMYVALFPCNECAKLIIQAGIKEVIFMSDKYHDSDEATAARLLFNMAGVTFRKFIPKCSKIVIDFDSINSRPSQKLQ”, the protein production result is on record as “failed”.

Consider “AIATDCEWFDMTWGSSASSGYCSQSDSDEHELELFYTARTSLRKSRKCRDKDEQSEVDWRKQDLSVTEIQQKVKEYNAQVNSNLFMVLNRDGSYTGFIKVQFKLARPVSLPPPRSVSSSSISSSCLGWDGGCQERTSFYLPRDTVKHLHISSSTRAREVIQALLNKFTVVDNPAKYSLYERSQRDNQVYLRKLADDECPLFLRLCAGPNEKVLSLVLKENETGEVNWDAFSFPELQNFLRILQREEEDHVRQIIRRYTLARDKMKEAMKNFSTPG”, for which the protein production result was “failed”.

For “AIEVEKNNKGINLSFDIEFYPNSFQILQKEYKKIDLIAKLLEKFKKNNILIEGHTEQFGLEEEMHELSEKRARAIGNYLIKMKVKDKDQILFKGWGSQKPKYPKSSPLKAKNRRVEITILN”, the protein production entry was “not failed”.

With “AIKHVKGNGKRTLYIFSDPDCPYCQRLEKELTAVDNVTIYLFLFPLTTLHPNAETIATQIWCSKNQYQAWQDYLLNHKAPTASQKCSTPIQKNLALGQKLNINGTPTMYLKNGERIAGAMQAGQLNTLLDQAQ”, the protein production result is “failed”.

Regarding “ALAERRLFAELVDHSVVNVHVVDKDLRWLAVNRQARHDFHLLYGRTPEIGDYLPGLFEDGTAGQTPILPMWQRALAGEQFIEIGTFGKPPAVRHYELRFNALRDPKGEVQGAFLFAYDISERVQEQERLAKAEAALRQAQKMEAVGQLSGGIAHDFNNLLGGI”, the protein production result was “failed”.

As for “ALPELRLEQFIITGASKRGWSAWLTAMADDRVIAIVPSVIDVADTSSMLEGLRKRYGGSWPLALWSYQAAEVLQQLGSPAFARLMALMDPMQYLDEPGARLKIPKYLVSASGDDFFAPDHATDYLQRLPGQTSLRVLPNSDHGGVRAHVVTTLVPMVQRIQASL”, the protein production result was “failed”.

Take “ALSDGVHKIEFEHGTTSGKRVVYVDGKEEIRKEWMFKLVGKETFYVGAAKTKATINIDAISGFAYEYTLEINGKSLKKYMEDRSKTTNTWVLHMDGENFRIVLEKDAMDVWCNGKKLETAGEFVDDGTETHFSIGNHDCYIKAVSSGKRKEGIIHTLIVDNREIPEIAS”: the protein production entry is given as “failed”.

On to “ANLYWFRADWFERPDLKKKFKDKYGYELGVPVNWSAYEDIAKFFSEDVKEIDGKKVFGHMDYGKKDPSLGWRFTDAWFSMAGSGDKGLPNGLPVDEWGIRVEDCHPVGSSITRGGDTNGPAAVFATQKYIDWLKAYAPPEAAGMTFSESGPVPSQGNVAQQIFWYTAFTADMTKPGLPVMNADGTPKWRMAPSPKGPYWKEGMKLGYQDVGSWTFLKSSDEKKRLAAWLYAQFVTSKSVSLKKTIVGLTPIRESDINS”, for which the protein production entry is recorded as “failed”.

As to “APIKGVTFGEDTVWEVQGYKNVRITFELDERVDKVLNEKCSVYTVESGTEVTEFACVVAEAVVKTLQPVSDLLTNMGIDLDEWSVATFYLFDDAGEENFSSRMYCSFYPPDE”, the protein production result was “not failed”.

With “APIPERAQVSVPGPVRVVDFDTPQSVALFVQPGIDRDDPDFFTAYILNHIIGGGGFESRLMQEVREKRGLTYGVYSYLLPKDLASIYMGSVASANDKIAEAVNVIRDVWRDVAANGVTAKELEDAKTYLTGAYPLRFDGNGRIANILAGMQIQGLPIDYIATRNDQVNAVTLEEINTFAAGFLDPEGLSFTVVGKPVGL”, the protein production result is on record as “failed”.

Turning to “AQNEKNMYSYKKIGNKYIVSINNHTEIVKALNAFCKEKGILSGSINGIGAIGELTLRFFNPKTKAYDDKTFREQMEISNLTGNISSMNEQVYLHLHITVGRSDYSALAGHLLSAIQNGAGEFVVEDYSERISRTYNPDLGLNIYDFER”, the protein production entry is recorded as “not failed”.

Regarding “AQNFSDYFTNKTLRIDYLFTGNADKQSICLDELSELPVWAGRRHHLSELPLEGNGQIVMRDVASGKVIYTTSFSSLFQEWLETDEAKEVTKGFENTYLLPYPIKPAEVEITLRNNKREVSANLKHVVKPDDILIHKKGLTHITPHKYLLKSGNEEQCIDVAILAEGYTTSEMETFYKDAAIACEALFSHEPFQSMKNRFNIVAVASPSADSGVSAPKQGAWKHTAFGSHFDTFYSDRYLTTSRVKAINDALAGIPYEHIIILANTEQYGGGGIYNAFTLTTAHHPNFRPVVVHEFGHSFGGLADEYFYDEDVMNGLYPLNIEPWEQNITTRINFASKWEDMLTKTTPVPTPVADKAKYPIGVYEGGGYSAKGIYRPAFDCRMRTNEYPTFCPVCQRAIQRIIEFYTGK”, the protein production entry was “not failed”.

In the case of “AQTPAQPQGKGIFQSVSEAIDAAHQAFLRYQQCPLKTRSAIISAMRQELTPLLATLAEESANETGMGNKEDKFLKNKAALDNTPGVEDLTTTALTGDGGMVLFEYSPFGVIGSVAPSTNPTETIINNSISMLAAGNSIYFSPHPGAKKVSLKLISLIEEIAFRCCGIRNLVVTVAEPTFEATQQMMAHPRIAVLAITGGPGIVAMGMKSGKKVIGAGNPPCIVDETADLVKAAEDIINGASFDYNLPCIAE”, the protein production entry is reported as “failed”.

For the sequence “ARHPDLVSCLTLLQAGDVAAFTVWKAARDPKGVLATPILGHVAMRRMAPKRMPAWYALSVGKADMISELCRCAERSFQHGAQWSLASAYQCYMDPAVELPRPHQPLLSIWGGADFSHPAGNEHSIRRLRPDAVCVTFDDLGHTPELEDPIRVFDAIVRFCEA”, the protein production entry is recorded as “failed”.

Take “ARRPMNAFLLFCKRHRSLVRQEHPRLDNRGATKILADWWAVLDPKEKQKYTDMAKEYKDAFMKANPGYR”: the protein production entry is on record as “not failed”.

“ASATETNTAPSADTQAPKPVNTVTSDVDCSVSAAWGLYKFNQKSNFSAEFEMPESVKAGTGFDALIKIKDISVSNDNLSGYKNAKLTKSSIRINVGKNVKLDGNQPGLSLSNGVLSINDHLKASLEGNSLRISAAPITVRLQALTEGTLTFIPEKTILTNTASVDGYTANTTCTTNADKPFATVKVDPADGLTITAPESASIKQDVQITATVPEKLNEKMDGKVQFFVNHIAAGDPVPVTEDNKASTSIIFDTSGSKTITARFIDAEGYNPAPDGETIIPVVTELDTKKPEDTDSYTGLINGSATSLLKPAKVMPGEKVSVSASLLPNKAPIRVYEIGINAPEDVKYIDGTGKTNYSSKLATTGSVFSSPGSGYYDPEWKNESKKPNESYRGFHSDTSYSVVDTSPQTVSAEFEIPKTLAPGIYMFQMGVYKYSNSLKDLVSIPETAFEIAGPDLPALPERKIKPQPEETPEVSDGSSTAKLVKSP”: the protein production entry was “not failed”.

“ASIYKNKKSHEQLSALKGSFCRNQFPGQSEVEHLTKVTGLSTREVRKWFSDRRYHCRNLKGSR”: the protein production result is “not failed”.
